Laboratory results: US20230416365A1 (Hoffmann-La Roche, published 2023)

T1: N(A2B2)A-avi-His (biotinylated at the avi tag)
T1 construct: also called biotinylated N(A2B2)A-avi-His
T1 chain: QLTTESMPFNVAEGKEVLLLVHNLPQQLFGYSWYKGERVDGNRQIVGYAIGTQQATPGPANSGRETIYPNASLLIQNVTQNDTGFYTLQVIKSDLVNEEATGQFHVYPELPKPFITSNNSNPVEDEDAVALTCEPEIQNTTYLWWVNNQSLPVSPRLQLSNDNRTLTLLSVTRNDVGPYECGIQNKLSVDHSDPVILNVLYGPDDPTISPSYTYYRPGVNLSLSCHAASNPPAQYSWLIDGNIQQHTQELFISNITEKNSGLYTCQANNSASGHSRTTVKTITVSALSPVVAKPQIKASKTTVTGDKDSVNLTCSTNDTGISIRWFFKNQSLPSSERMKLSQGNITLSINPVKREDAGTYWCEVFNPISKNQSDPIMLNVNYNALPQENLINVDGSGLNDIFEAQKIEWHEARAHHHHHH

B1: bispecific CEA (P005.102)-CD28 (SA Variant 15) 1+1 IgG (bispecific antibody)
heavy 1: EIVLTQSPATLSLSPGERATLSCRASSSVTYIHWYQQKPGQAPRSWIYATSNLASGIPARFSGSGSGTDFTLTISSLEPEDFAVYYCQHWSSKSPTFGQGTKLEIKSSASTKGPSVFPLAPSSKSTSGGTAALGCLVKDYFPEPVTVSWNSGALTSGVHTFPAVLQSSGLYSLSSVVTVPSSSLGTQTYICNVNHKPSNTKVDKKVEPKSCDKTHTCPPCPAPEAAGGPSVFLFPPKPKDTLMISRTPEVTCVVVDVSHEDPEVKFNWYVDGVEVHNAKTKPREEQYNSTYRVVSVLTVLHQDWLNGKEYKCKVSNKALGAPIEKTISKAKGQPREPQVCTLPPSRDELTKNQVSLSCAVKGFYPSDIAVEWESNGQPENNYKTTPPVLDSDGSFFLVSKLTVDKSRWQQGNVFSCSVMHEALHNHYTQKSLSLSP
light 1: EVQLLESGGGLVQPGGSLRLSCAASGFTFTDYYMNWVRQAPGKGLEWLGFIGNKANAYTTEYSASVKGRFTISRDKSKNTLYLQMNSLRAEDTATYYCTRDRGIRFQFDYWGQGTTVTVSSASVAAPSVFIFPPSDEQLKSGTASVVCLLNNFYPREAKVQWKVDNALQSGNSQESVTEQDSKDSTYSLSSTLTLSKADYEKHKVYACEVTHQGLSSPVTKSFNRGEC
heavy 2: not shown
light 2: not shown
notes: knob-into-hole, crossmab, PG-LALA
B2: bispecific CEA (P005.102-combo2)-CD28 (SA Variant 15) 1+1 IgG (bispecific antibody)
heavy 1: EIVLTQSPATLSLSPGERATLSCRASSSVTYIHWYQQKPGQAPRSWIYATSNLASGIPARFSGSGSGTDFTLTISSLEPEDFAVYYCQHWSSKSPTFGQGTKLEIKSSASTKGPSVFPLAPSSKSTSGGTAALGCLVKDYFPEPVTVSWNSGALTSGVHTFPAVLQSSGLYSLSSVVTVPSSSLGTQTYICNVNHKPSNTKVDKKVEPKSCDKTHTCPPCPAPEAAGGPSVFLFPPKPKDTLMISRTPEVTCVVVDVSHEDPEVKFNWYVDGVEVHNAKTKPREEQYNSTYRVVSVLTVLHQDWLNGKEYKCKVSNKALGAPIEKTISKAKGQPREPQVCTLPPSRDELTKNQVSLSCAVKGFYPSDIAVEWESNGQPENNYKTTPPVLDSDGSFFLVSKLTVDKSRWQQGNVFSCSVMHEALHNHYTQKSLSLSP
light 1: EVQLLESGGGLVQPGGSLRLSCAASGFYFSDYYMNWVRQAPGKGLEWLGVISNKANAYTTEYSASVKGRFTISRDKSKNTLYLQMNSLRAEDTATYYCTRDRGIRFQFDYWGQGTTVTVSSASVAAPSVFIFPPSDEQLKSGTASVVCLLNNFYPREAKVQWKVDNALQSGNSQESVTEQDSKDSTYSLSSTLTLSKADYEKHKVYACEVTHQGLSSPVTKSFNRGEC
heavy 2: not shown
light 2: not shown
notes: as for B1
B3: bispecific CEA (P005.103)-CD28 (SA Variant 15) 1+1 IgG (bispecific antibody)
heavy 1: EIVLTQSPATLSLSPGERATLSCRASSSVTYIHWYQQKPGQAPRSWIYATSNLASGIPARFSGSGSGTDFTLTISSLEPEDFAVYYCQHWSSISPTFGQGTKLEIKSSASTKGPSVFPLAPSSKSTSGGTAALGCLVKDYFPEPVTVSWNSGALTSGVHTFPAVLQSSGLYSLSSVVTVPSSSLGTQTYICNVNHKPSNTKVDKKVEPKSCDKTHTCPPCPAPEAAGGPSVFLFPPKPKDTLMISRTPEVTCVVVDVSHEDPEVKFNWYVDGVEVHNAKTKPREEQYNSTYRVVSVLTVLHQDWLNGKEYKCKVSNKALGAPIEKTISKAKGQPREPQVCTLPPSRDELTKNQVSLSCAVKGFYPSDIAVEWESNGQPENNYKTTPPVLDSDGSFFLVSKLTVDKSRWQQGNVFSCSVMHEALHNHYTQKSLSLSP
light 1: EVQLLESGGGLVQPGGSLRLSCAASGFTFTDYYMNWVRQAPGKGLEWLGFIGNKANAYTTEYSASVKGRFTISRDKSKNTLYLQMNSLRAEDTATYYCTRDRGIRFYFDYWGQGTTVTVSSASVAAPSVFIFPPSDEQLKSGTASVVCLLNNFYPREAKVQWKVDNALQSGNSQESVTEQDSKDSTYSLSSTLTLSKADYEKHKVYACEVTHQGLSSPVTKSFNRGEC
heavy 2: not shown
light 2: not shown
notes: as for B1
B4: bispecific CEA (P001.177)-CD28 (SA Variant 15) 1+1 IgG (bispecific antibody)
heavy 1: EIVLTQSPATLSLSPGERATLSCRASSSVTYIHWYQQKPGQAPRSWIYATSNLASGIPARFSGSGSGTDFTLTISSLEPEDFAVYYCQHWSSKPPTFGQGTKLEIKSSASTKGPSVFPLAPSSKSTSGGTAALGCLVKDYFPEPVTVSWNSGALTSGVHTFPAVLQSSGLYSLSSVVTVPSSSLGTQTYICNVNHKPSNTKVDKKVEPKSCDKTHTCPPCPAPEAAGGPSVFLFPPKPKDTLMISRTPEVTCVVVDVSHEDPEVKFNWYVDGVEVHNAKTKPREEQYNSTYRVVSVLTVLHQDWLNGKEYKCKVSNKALGAPIEKTISKAKGQPREPQVCTLPPSRDELTKNQVSLSCAVKGFYPSDIAVEWESNGQPENNYKTTPPVLDSDGSFFLVSKLTVDKSRWQQGNVFSCSVMHEALHNHYTQKSLSLSP
light 1: EVQLLESGGGLVQPGGSLRLSCAASGFYFTDYYMNWVRQAPGKGLEWLGFISNKANAYTTEYSASVKGRFTISRDKSKNTLYLQMNSLRAEDTATYYCTRDRGLRFYFDYWGQGTTVTVSSASVAAPSVFIFPPSDEQLKSGTASVVCLLNNFYPREAKVQWKVDNALQSGNSQESVTEQDSKDSTYSLSSTLTLSKADYEKHKVYACEVTHQGLSSPVTKSFNRGEC
heavy 2: not shown
light 2: not shown
notes: as for B1
B5: bispecific CEA (P005.102-combo1)-CD28 (SA Variant 15) 1+1 IgG (bispecific antibody)
heavy 1: EIVLTQSPATLSLSPGERATLSCRASSSVTYIHWYQQKPGQAPRSWIYATSNLASGIPARFSGSGSGTDFTLTISSLEPEDFAVYYCQHWSSKSPTFGQGTKLEIKSSASTKGPSVFPLAPSSKSTSGGTAALGCLVKDYFPEPVTVSWNSGALTSGVHTFPAVLQSSGLYSLSSVVTVPSSSLGTQTYICNVNHKPSNTKVDKKVEPKSCDKTHTCPPCPAPEAAGGPSVFLFPPKPKDTLMISRTPEVTCVVVDVSHEDPEVKFNWYVDGVEVHNAKTKPREEQYNSTYRVVSVLTVLHQDWLNGKEYKCKVSNKALGAPIEKTISKAKGQPREPQVCTLPPSRDELTKNQVSLSCAVKGFYPSDIAVEWESNGQPENNYKTTPPVLDSDGSFFLVSKLTVDKSRWQQGNVFSCSVMHEALHNHYTQKSLSLSP
light 1: EVQLLESGGGLVQPGGSLRLSCAASGFYFTDYYMNWVRQAPGKGLEWLGVISNKANAYTTEYSASVKGRFTISRDKSKNTLYLQMNSLRAEDTATYYCTRDRGIRFQFDYWGQGTTVTVSSASVAAPSVFIFPPSDEQLKSGTASVVCLLNNFYPREAKVQWKVDNALQSGNSQESVTEQDSKDSTYSLSSTLTLSKADYEKHKVYACEVTHQGLSSPVTKSFNRGEC
heavy 2: not shown
light 2: not shown
notes: as for B1
B6: bispecific CEA (P005.097)-CD28 (SA Variant 15) 1+1 IgG (bispecific antibody)
heavy 1: EIVLTQSPATLSLSPGERATLSCRASSSVTYIHWYQQKPGQAPRSWIYATSNLASGIPARFSGSGSGTDFTLTISSLEPEDFAVYYCQHWSSQPPTFGQGTKLEIKSSASTKGPSVFPLAPSSKSTSGGTAALGCLVKDYFPEPVTVSWNSGALTSGVHTFPAVLQSSGLYSLSSVVTVPSSSLGTQTYICNVNHKPSNTKVDKKVEPKSCDKTHTCPPCPAPEAAGGPSVFLFPPKPKDTLMISRTPEVTCVVVDVSHEDPEVKFNWYVDGVEVHNAKTKPREEQYNSTYRVVSVLTVLHQDWLNGKEYKCKVSNKALGAPIEKTISKAKGQPREPQVCTLPPSRDELTKNQVSLSCAVKGFYPSDIAVEWESNGQPENNYKTTPPVLDSDGSFFLVSKLTVDKSRWQQGNVFSCSVMHEALHNHYTQKSLSLSP
light 1: EVQLLESGGGLVQPGGSLRLSCAASGFTFTDYYMNWVRQAPGKGLEWLGFIGNKANAYTTEYSASVKGRFTISRDKSKNTLYLQMNSLRAEDTATYYCTRDRGLRFSFDYWGQGTTVTVSSASVAAPSVFIFPPSDEQLKSGTASVVCLLNNFYPREAKVQWKVDNALQSGNSQESVTEQDSKDSTYSLSSTLTLSKADYEKHKVYACEVTHQGLSSPVTKSFNRGEC
heavy 2: not shown
light 2: not shown
notes: as for B1
B7: bispecific CEA (P002.139)-CD28 (SA Variant 15) 1+1 IgG (bispecific antibody)
heavy 1: EIVLTQSPATLSLSPGERATLSCHASSSVTYIHWYQQKPGQAPRSWIYATSNLASGIPARFSGSGSGTDFTLTISSLEPEDFAVYYCQHWSSKPPTFGQGTKLEIKSSASTKGPSVFPLAPSSKSTSGGTAALGCLVKDYFPEPVTVSWNSGALTSGVHTFPAVLQSSGLYSLSSVVTVPSSSLGTQTYICNVNHKPSNTKVDKKVEPKSCDKTHTCPPCPAPEAAGGPSVFLFPPKPKDTLMISRTPEVTCVVVDVSHEDPEVKFNWYVDGVEVHNAKTKPREEQYNSTYRVVSVLTVLHQDWLNGKEYKCKVSNKALGAPIEKTISKAKGQPREPQVCTLPPSRDELTKNQVSLSCAVKGFYPSDIAVEWESNGQPENNYKTTPPVLDSDGSFFLVSKLTVDKSRWQQGNVFSCSVMHEALHNHYTQKSLSLSP
light 1: EVQLLESGGGLVQPGGSLRLSCAASGFYFTDYAMNWVRQAPGKGLEWLGVISNKANAYTTEYSASVKGRFTISRDKSKNTLYLQMNSLRAEDTATYYCTRDRGLRFYFDYWGQGTTVTVSSASVAAPSVFIFPPSDEQLKSGTASVVCLLNNFYPREAKVQWKVDNALQSGNSQESVTEQDSKDSTYSLSSTLTLSKADYEKHKVYACEVTHQGLSSPVTKSFNRGEC
heavy 2: not shown
light 2: not shown
notes: as for B1
B8: bispecific CEA (A5H1EL1D)-CD28 (SA Variant 15) 1+1 IgG of Example 10.3 (bispecific antibody)
heavy 1: EVQLLESGGGLVQPGGSLRLSCAASGFTFTDYYMNWVRQAPGKGLEWLGFIGNKANAYTTEYSASVKGRFTISRDKSKNTLYLQMNSLRAEDTATYYCTRDRGLRFYFDYWGQGTTVTVSSASTKGPSVFPLAPSSKSTSGGTAALGCLVKDYFPEPVTVSWNSGALTSGVHTFPAVLQSSGLYSLSSVVTVPSSSLGTQTYICNVNHKPSNTKVDKKVEPKSCDKTHTCPPCPAPEAAGGPSVFLFPPKPKDTLMISRTPEVTCVVVDVSHEDPEVKFNWYVDGVEVHNAKTKPREEQYNSTYRVVSVLTVLHQDWLNGKEYKCKVSNKALGAPIEKTISKAKGQPREPQVCTLPPSRDELTKNQVSLSCAVKGFYPSDIAVEWESNGQPENNYKTTPPVLDSDGSFFLVSKLTVDKSRWQQGNVFSCSVMHEALHNHYTQKSLSLSP
light 1: EIVLTQSPATLSLSPGERATLSCRASSSVTYIHWYQQKPGQAPRSWIYATSNLASGIPARFSGSGSGTDFTLTISSLEPEDFAVYYCQHWSSKPPTFGQGTKLEIKRTVAAPSVFIFPPSDEQLKSGTASVVCLLNNFYPREAKVQWKVDNALQSGNSQESVTEQDSKDSTYSLSSTLTLSKADYEKHKVYACEVTHQGLSSPVTKSFNRGEC
heavy 2: not shown
light 2: not shown
notes: as for B1

Molecular target: T1, N(A2B2)A-avi-His
Assay: SPR, ProteOn, antigen on NLC chip, bispecific IgG as analyte
Method: About 2000, 1000, 500, and 250 RU of biotinylated N(A2B2)A-avi-His were immobilized on 4 channels of a Streptavidin-coated NLC chip in vertical orientation. As a control for non-specific binding, 2000 RU of biotinylated NA(B2)A-avi-His protein was immobilized on channel 5. For the determination of the affinity (KD) of the purified bispecific constructs, injection direction was changed to horizontal orientation. […] Buffer (PBST) was injected along the sixth channel to provide an “in-line” blank for referencing. Regeneration was performed with 10 mM glycine pH 1.5 for 20 s at 50 ul/min (vertical orientation).
Association rate constants (kon) and dissociation rate constants (koff) were calculated using a simple one-to-one Langmuir binding model in ProteOn Manager v3.1 software by simultaneously fitting the association and dissociation sensorgrams. The equilibrium dissociation constant (KD) was calculated as the ratio koff/kon.

Row | Binder | Kd [nM] | koff [s⁻¹] | kon [M⁻¹ s⁻¹]
1 | B1 | 0.2 | 3.31e-05 | 160000
2 | B2 | 0.08 | 1.85e-05 | 225000
3 | B3 | 0.44 | 0.000112 | 257000
4 | B4 | 0.43 | 8.83e-05 | 205000
5 | B5 | 0.06 | 1.23e-05 | 207000
6 | B6 | 0.33 | 8.87e-05 | 269000
7 | B7 | 0.39 | 9.7e-05 | 249000
8 | B8 | 2.11 | 0.000333 | 158000
